Source: the DeepSol protein solubility set

Assay: soluble on expression in E. coli; label from the status in PepcDB or PDB records

With “MSLKVKAINLYTYKEPFKSPISTPKVKLTHRESLFTEIVTYSGETYYGECNAFLTNWYDKETILTVVNRLRQWIPQVLHKDMTSFDSWLPYLNQMNDAPAARSMVVMAVYQMYNDLHDFEVQYGATVSGLTNSQIETLLETRPKRIKLKWSTSLIKDLETIRLLNFDCDIAIDANESLTKPSFLQLANVNTSDIIYIEEPFKILEDLNDIDMSIFPRIAIDEKALSIEKIQSIIQQYPIQVVVLKPFRLGGIDRMLNAMKILKEKNIRFVVGGMYEFGLSRYFTAMLAKEGSYPGDITPHGYYFSNDIVETSGILKGGMIYFTPPKVKRSLLNKVEGHHHHHH” as the sequence, how does the “soluble on expression in E. coli” value read?
Its value is “not soluble”.

For “KANFQWETGFTFSVNKNTIKKLYGEYETIVDALGNTIVKERDDVTNGWFIGHPVSAIWDYKVTGIWQKDEVKEAAKYSQRPGDPKVQNIYTDDDKVNADGSVTPVYNNKDKQFMGETTPPIHWSLRNSFTIFKDWVFSFNMYSYMGHKSLDTNYLNNDNNYSQITNCRNVYTKEYWTVDNPSNTYARLSAQGPTGISAPARVIDRSFIRLENISLAYNIPMKFLEKYKIQNAKIFTTVRNVATWSKEWEYGDPETGGLAPRTYSLGINLTF”, which “soluble on expression in E. coli” value is on record?
The value was “not soluble”.

For “MSKQPMTPFEAIGGEQCIAILVDTFYSYVSKHPDLSPIFPEDLTETARKQKQFLTQYLGGPNLYTEEHGHPMLRARHLPFEITPKRAEAWLSCMEQAMDDTGVHGHIREFVFERLALTAQHMVNTPNETGEV”, which “soluble on expression in E. coli” value is on record?
The value was “not soluble”.

Which “soluble on expression in E. coli” value does the source give for “MAASMTKPISITSLGFYSDRKNIAFSDCISICSGFRHSRPSCLDLVTKSPSNNSRVLPVVSAQISSDYIPDSKFYKVEAIVRPWRIQQVSSALLKIGIRGVTVSDVRGFGAQGGSTERHGGSEFSEDKFVAKVKMEIVVKKDQVESVINTIIEGARTGEIGDGKIFVLPVSDVIRVRTGERGEKAEKMTGDMLSPS” here?
The value was “not soluble”.

With “MSLSKTRTFLFDLYGVLIKEHGAAQFERVARAVGEPSKNDKLHEVYESLRLDLDAGRVSEVNYWNQIKLLVGLEFLDIQEVIAADYRGLYERDQDMVDYVLSLKAKGHRIGILSNIPEGLAKLLKEHNSEWLDQLDAVTLSCDIGAAKPEPKSFHVALEALGEKAEDVTFIDDRVRNIEAAREEGLSTIHFTGLDSLKESIQEGHHHHHH” as the sequence, how does the “soluble on expression in E. coli” value read?
The value was “soluble”.

Which “soluble on expression in E. coli” value does the source give for “MMRSHVITHFSMPNIDLHSHSTISDGMLSPSRLLAHAAVRGVNVLALTDHDDIAGLSEASRSAQQENITLIRGVEISVTWHGRTLHILGLGINPEHPPLTEGLKKIRDGRMDRARAIAAQLDKFGIHGSFEGASAQAGISRLIGRTHFARFLVSQGYAKNVKSVFKKYLVKGKPGHVSHVWVSLDEAIGWIRGSGGQAVIAHPARYKLSNDLLEQLLCEFRELGGAGIEVVSSSHTPEQTRQFAALATRMNLYASCGSDYHGPGESYFDLGRLPALPPECTPIWNEWEIPDYAETGATTLNEQSEQTGLQSPGKSV” here?
The value was “not soluble”.

With “MKVALYAGTYVKDKDGAVRSIYQLVSSMIKNGHQVVVWTPDFTPEANASVPVNLTPSVPIPLYPDYKLGFYNAVTERQLDEFAPDIVHISTPDIVGRKFLHYAKRKGLPVGSAYHTDFPSYLSYYRLGFAEPAVWRFLRKFYNACDVTLAPNESVRERLTGKGIERVELWSRGIDKELFDPSRRSAKLRRAWDAEGRTVIIYAGRFVLYKDIEVVMSLYQRFADEGLGDRVRFVMIGSGPEEAQMRARMPEAVFTGYLTGTTLPEAYASGDLFLFPSTTEAFCNVTLEALATGLPAVVSDVGGCQELVERSGGGFVAKAGDVGDFYACCTKLMQDGELFRSMRERGLAFAKDKSWAAVNGKLIDRYLELIAAKARRLEHHHHHH” as the sequence, how does the “soluble on expression in E. coli” value read?
The value was “not soluble”.

With “MLRTQAARLICNSRVITAKRTFALATRAAAYSRPAARFVKPMITTRGLKQINFGGTVETVYERADWPREKLLDYFKNDTFALIGYGSQGYGQGLNLRDNGLNVIIGVRKDGASWKAAIEDGWVPGKNLFTVEDAIKRGSYVMNLLSDAAQSETWPAIKPLLTKGKTLYFSHGFSPVFKDLTHVEPPKDLDVILVAPKGSGRTVRSLFKEGRGINSSYAVWNDVTGKAHEKAQALAVAIGSGYVYQTTFEREVNSDLYGERGCLMGGIHGMFLAQYDVLRENGHSPSEAFNETVEEATQSLYPLIGKYGMDYMYDACSTTARRGALDWYPIFKNALKPVFQDLYESTKNGTETKRSLEFNSQPDYREKLEKELDTIRNMEIWKVGKEVRKLRPENQ” as the sequence, how does the “soluble on expression in E. coli” value read?
The value was “not soluble”.

Which “soluble on expression in E. coli” value does the source give for “MSLNGLNSECHFYQTDGDIVVRCAQINDAERLSQYFVDNRSHLIEWEPRREAEFFTESGWLQRLIKLNELHKMKLGYYLLILDAQNDAMLGTISFSNIIRFPFHACNVGYSLAYEAQGKGIMTRALTMACQYMFSEHNMHRIMASYIPHNKRSENVLKRVGFVLEGHAKDYLLINGKWEDHNLTSLINPNWKEEGHHHHHH” here?
The value was “soluble”.

With “MKTVDSELFDSGPFKKNFAFGNADHSTASPFEISTTPIEVNESRAHKTIEISNRARLESQNDGCLSPSSLKSVLDEIQTEPRCKSPQHIDLHTFRDAVDVNYQRMAITGEELSGVPLEDLKTASGHLIEALHLRSKYMERIGNQFPSTTRNFLSGHYPANLPKHRVKNTETTVQTSFNPPDPPKDHWGKNDPLPKYEKIYHLRRNRGVTEICNDDGSIDQQFKNVNVTKEEFLNDTEKLTAMIVDGPLKSFCFRRLSYLENKFQLHVLLNELRELHEQKGVSHRDFYNIRKVDTHIHAASSMNQKHLLRFIKKKIKTEADTVVLNNNGTKVTMKEVFKKMGIDAYDLSVDMLDVHADRNTFHRFDKFNTKYNPVGESTLREIFIKTDNYVGGKYFADLLKEVLSDLEDSKYQHAEPRLSIYGRSKNEWDNLAKWALTHDVWSPNARWLVQIPRLYDVYRAKNMVKNFDDMLDNLFTPLFEVTNDPSSHPELHLFLQQISGIDSVDDESKHEFVNFDRSTPCPPEYTDLENPPYNYYLFYMYRNICALNAFRRARGLNTFALRPHCGEAGHVSHLLTGYLTSESIAHGILLRKVPVLQYLYYLTQIGIAMSPLSNNSLFISYQRNPLPEYLQKGLNVSLSTDDPLQFHYTKEALMEEFSIAAQVWKLSSCDMCELARNSVMQSGFEDKVKIHWLGPNYKEEGVLGNDIHRTNVPDIRVSFRHEALVDELYNLFRVQNTLKQ” as the sequence, how does the “soluble on expression in E. coli” value read?
Its value is “not soluble”.

Which “soluble on expression in E. coli” value does the source give for “MGVETLNKVFKIAKKFYTDIRYYSFQLACIHLGETFSRYTKFNLADKYYLKKDKIVLNYLRTRYTNSPKQDVYGGVPKIYQPIWVFWYQGEEQMPKLVSACLKSVRNNANGHEVILISKENMNNYIEIPDVIRDRVESKKISMAQYSDIIRMCLLAEYGGLWIDATVLVTQLIPQYIFELPLFTIKNSPNQEDPLYFISVSHLRWTTYVMGGEPNNALFTFVRDLLIEYNSVENALIDYLLIDYAIELAIEKNSSISDDMIKIPINNQLKEEFVHRLFSVYPDCKTKELLQSGTIFFKLSYKKVAPKVIEKNNYQLLVDGDLCQAYNMGNLEHHHHHH” here?
Its value is “not soluble”.

Which “soluble on expression in E. coli” value does the source give for “MIKNLITQQEGKTLEFKRDLSSPKSLLKSIVAFANTAGGHLIIGVNDERQIIGVEHPLDEEERLCNLIADSISPRLIPSIELVTLNNKTLLVIEVFVSNTGPHWINSEGSTQGIYVRLGSTNRQADQELITELHRRSEGVNFDEMPMPQLSVDDVDITKAQELFSDIKSLNEKNLLTLKLITSHQGKLVPTKGAILLFGKERNTYFPDAWVQCGRFIGKDKSRIFDHVDIYDYLPDAVESIMMFLKKHALRGADFSAVQRKDIWSIPLVMLREAVINALVHTDYSQRGAPIRISFFDDRIEIENPGILLPGLTIEDMRQGISKIRNHVIARVFRELNLIEQWGSGVSRIYSEAIEQKLQEPEIIEIGMRIRFIIYLAQGIPIDSTFDKRDKQLESRLESRLESRLESKLAARVIQVLQNGEAGKIQIARSLGHQTVSGELHKQIKQLLKLEIIEMTIPDKPNSRLQKYRLTNKGIDLINIIQRELAAALEHHHHHH” here?
The value was “not soluble”.

Which “soluble on expression in E. coli” value does the source give for “MRRAEMLLLKSLAETLMADRDNRHDDLQATMRLAHLSSPEMILYMVNRVLELEESIERIAAVLQKLSADEPMPLEETPPEPAFEPALQSRATETAET” here?
Its value is “not soluble”.

With “MGSSHHHHHHSSGLVPRGSEELQNKLEDVVIDRNLLILGKILGEGEFGSVMEGNLKQEDGTSLKVAVKTMKLDNSSQREIEEFLSEAACMKDFSHPNVIRLLGVCIEMSSQGIPKPMVILPFMKYGDLHTYLLYSRLETGPKHIPLQTLLKFMVDIALGMEYLSNRNFLHRDLAARNCMLRDDMTVCVADFGLSKKIYSGDYYRQGRIAKMPVKWIAIESLADRVYTSKSDVWAFGVTMWEIATRGMTPYPGVQNHEMYDYLLHGHRLKQPEDCLDELYEIMYSCWRTDPLDRPTFSVLRLQLEKLLESLPDV” as the sequence, how does the “soluble on expression in E. coli” value read?
The value was “soluble”.
